According to publication PMC9931449:

Columns and labels:
Assay in all cases: fluorescence anisotropy
APE1 C310S = APE1 C310S (Homo sapiens, UniProt P27695 1-318, C310S)
APE1 C65S = APE1 C65S (Homo sapiens, UniProt P27695 1-318, C65S)
APE1 WT = APE1 WT (Homo sapiens, UniProt P27695 1-318)
Sequence of APE1 WT (P27695 whole entry): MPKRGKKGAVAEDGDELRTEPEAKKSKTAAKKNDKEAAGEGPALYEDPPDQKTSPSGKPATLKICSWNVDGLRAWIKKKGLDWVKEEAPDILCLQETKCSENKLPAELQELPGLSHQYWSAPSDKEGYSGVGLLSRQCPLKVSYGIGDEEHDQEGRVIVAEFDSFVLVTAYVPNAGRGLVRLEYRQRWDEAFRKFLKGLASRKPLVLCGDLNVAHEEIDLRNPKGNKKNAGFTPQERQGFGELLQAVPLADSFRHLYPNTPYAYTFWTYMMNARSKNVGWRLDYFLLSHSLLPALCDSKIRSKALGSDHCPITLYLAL

Sequence of APE1 C65S (P27695 whole entry C65S): as the sequence (P27695 whole entry) above, with C65S counted along it
Sequence of APE1 C310S (P27695 whole entry C310S): as the sequence (P27695 whole entry) above, with C310S counted along it

| Binder | binding result (APE1 C310S) | binding result (APE1 C65S) | binding result (APE1 WT) |
| --- | --- | --- | --- |
| TAGGGTGCTGTTTGGGCGGGGCCTGGGCGGGGCC (structured_DNA) [N3-5 G4] | binds | binds |  |
| TTGGGCGGGGCCTGGGCGGGGCC (structured_DNA) [N3-4 G4] | binds | binds |  |
| N3 WT duplex (dsDNA) DNA 1: TTGGGCGGGGCCTGGGCGGGGCC DNA 2: GGCCCCGCCCAGGCCCCGCCCAA |  |  | no binding |
